The record followed here is article PMC8204860, “Structural basis of [sequence]‐mediated Rab1 activation” (The EMBO Journal, 2021).

The target in the assay is T1, Trs31 (Saccharomyces cerevisiae, UniProt Q03337 1-283).
T1 construct: Trs31, TRAPP core subunit, S. cerevisiae; also called Trs31 subunit
T1 sequence: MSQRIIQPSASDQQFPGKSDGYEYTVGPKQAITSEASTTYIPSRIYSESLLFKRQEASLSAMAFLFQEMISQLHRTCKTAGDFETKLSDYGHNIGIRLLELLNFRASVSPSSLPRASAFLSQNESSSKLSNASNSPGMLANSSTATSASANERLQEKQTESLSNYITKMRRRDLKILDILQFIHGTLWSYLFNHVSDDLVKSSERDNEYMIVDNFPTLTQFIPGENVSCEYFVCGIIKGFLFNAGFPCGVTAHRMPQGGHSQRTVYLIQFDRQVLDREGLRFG
The assay can be described thus: cryo-EM structure; TRAPPIII (after anion exchange) mixed 1:3 with Ypt1-7xHis, overnight at 4°C with calf intestinal alkaline phosphatase, complex isolated by SEC in 10 mM Tris pH 7.5, 350 mM NaCl, 1 mM DTT; 3.7 Å reconstruction. The following applies: both partners purified.

B1: Rab1/Ypt1 (Ypt1-7xHis) (natural protein)
chain: not shown
notes: Rab1/Ypt1, budding yeast GTPase; Made nucleotide-free in the complex by alkaline phosphatase. pGEX-6P backbone; gift from the T. Bretscher laboratory; also called GST-Ypt1-7xHis (before cleavage); source: E. coli Rosetta2, purified (glutathione resin, eluted by PreScission cleavage of GST); not shown: GST, N-terminal, cleaved
Take B1: the binding result is on record as “binds”.
